Measurements published in article PMC4258232 (Cell stem cell, 2014).
Residue numbers refer to the chain shown, from its start. Names and notes keep the numbering of the source. Where two headings read alike, the source gives them in different places.

T1: GST-SET7/9 (full length) (UniProt Q8WTS6 1-366)
T1 sequence (looked up): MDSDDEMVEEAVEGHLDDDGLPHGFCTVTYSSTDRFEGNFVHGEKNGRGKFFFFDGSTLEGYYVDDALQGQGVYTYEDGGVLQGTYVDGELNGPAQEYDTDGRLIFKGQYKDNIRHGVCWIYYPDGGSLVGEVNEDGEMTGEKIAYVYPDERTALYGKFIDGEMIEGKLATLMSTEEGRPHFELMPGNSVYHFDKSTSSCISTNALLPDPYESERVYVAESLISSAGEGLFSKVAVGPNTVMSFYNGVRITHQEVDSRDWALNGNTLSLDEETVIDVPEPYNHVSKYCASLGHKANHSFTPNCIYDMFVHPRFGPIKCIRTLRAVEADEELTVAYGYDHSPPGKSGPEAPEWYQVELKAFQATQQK

B1: 6×HIS-LIN28A (full length) (natural protein, UniProt Q9H9Z2 1-209, looked up)
chain: MGSVSNQQFAGGCAKAAEEAPEEAPEDAARAADEPQLLHGAGICKWFNVRMGFGFLSMTARAGVALDPPVDVFVHQSKLHMEGFRSLKEGEAVEFTFKKSAKGLESIRVTGPGGVFCIGSERRPKGKSMQKRRSKGDRCYNCGGLDHHAKECKLPPQPKKCHFCQSISHMVASCPLKAQQGPSAQGKPTYFREEEEEIHSPTLLPEAQN
B2: 6×HIS-LIN28A-K135R (full length) (natural protein, UniProt Q9H9Z2 1-209, looked up)
chain: B1 chain with K135R
B3: LIN28A carboxyl terminus (amino acids 125-209) (domain or fragment, UniProt Q9H9Z2 125-209, looked up)
chain: KGKSMQKRRSKGDRCYNCGGLDHHAKECKLPPQPKKCHFCQSISHMVASCPLKAQQGPSAQGKPTYFREEEEEIHSPTLLPEAQN

Tests used:
GST-SET7/9 (full length) [1] = target: T1, GST-SET7/9 (full length); test: pull-down
GST-SET7/9 (full length) [2] = target: T1, GST-SET7/9 (full length); test: pull-down; remark: listed apart in the source

Binder	binding result (GST-SET7/9 (full length) [1])	binding result (GST-SET7/9 (full length) [2])
B1	binds	–
B2	binds	–
B3	–	binds
